Experimental data taken from paper PMC9780223.

Each substance was assayed against purified recombinant PAPP-A free of STC2 (apo PAPP-A) (human) (UniProt Q13219) (assay: MST).
For “5P1, peptide from the linker region of IGFBP5 (from UniProt P24593)”, the Kd was 4.43 µM.
With “4P2, peptide from the linker region of IGFBP4 (from UniProt P22692)” the Kd was 27.5 µM.
With “5P2, peptide from the linker region of IGFBP5 (from UniProt P24593)” the Kd was 17.3 µM.
“4P1, peptide from the linker region of IGFBP4 (from UniProt P22692)” gave a Kd of 1.73 µM.
With “5P3, peptide from the linker region of IGFBP5 (from UniProt P24593)” the Kd was 38 µM.
“4P3, peptide from the linker region of IGFBP4 (from UniProt P22692)” was tested, and the Kd was 162 µM.
